# Data from patent US9057734B2, “Optogenetic probes for measuring membrane potential” (President and Fellows of Harvard College, priority 2010, dated 2015).
# Tests used:
# HEK-293 cells = assay: Fluorescence versus membrane potential under whole-cell voltage clamp (ramp, step, frequency response, noise); type: cell-based, human
# Protocol: Fluorescence of Arch 3 in HEK 293 cells was readily imaged in an inverted fluorescence microscope with red illumination (λ=640 nm, I=540 W/cm^2), a high numerical aperture objective, a Cy5 filter set, and an EMCCD camera. […] Cells not expressing Arch were not fluorescent.
# HEK-293 cells were grown at 37° C., 5% CO2, in DMEM supplemented with 10% FBS and penicillin-streptomycin. Plasmids were transfected using LIPOFECTAMINE™ and PLUS reagent (Invitrogen) following the manufacturer's instructions, and assayed between 48-72 hours later. The day before recording, cells were re-plated onto glass-bottom dishes (MatTek) at a density of ˜5000 cells/cm^2.
# The concentration of endogenous retinal in the HEK cells was not known, so the cells were supplemented with retinal by diluting stock retinal solutions (40 mM, DMSO) in growth medium to a final concentration of 5 μM, and then placing the cells back in the incubator for 1-3 hours. All imaging and electrophysiology were performed in Tyrode's buffer (containing, in mM: 125 NaCl, 2 KCl, 3 CaCl2, 1 MgCl2, 10 HEPES, 30 glucose pH 7.3, and adjusted to 305-310 mOsm with sucrose). Only HEK cells having reversal potentials between −10 and −40 mV were included in the analysis.
# Simultaneous fluorescence and whole-cell patch clamp recordings were acquired on a home-built, inverted epifluorescence microscope at room temperature. A diode laser operating at 100 mW, 640 nm (CrystaLaser, DL638-100-O) provided wide-field illumination at an intensity typically between 500-2000 W/cm^2. To minimize background signal from out-of-focus debris, illumination was often performed in through-the-objective total internal reflection fluorescence (TIRF) mode. Fluorescence emission was collected using a 60×, 1.45 NA oil immersion objective (Olympus), and separated from scattered excitation using a 660-760 nm bandpass emission filter (Chroma). For fast imaging of dynamic fluorescence responses and action potentials, images were acquired on an Andor iXon^+ 860 camera operating at up to 2,000 frames/s (using a small region of interest and pixel binning). Slower images with higher spatial resolution were acquired on an Andor iXon^+ 897 EMCCD. Custom software written in LabView (National Instruments) was used to synchronize illumination, collection of images, recording of membrane potential and cell current, and application of electrical stimuli to the cell.
# Filamented glass micropipettes (WPI) were pulled to a tip resistance of 3-10 MΩ, fire polished, and filled with internal solution (containing, in mM: 125 Potassium gluconate, 8 NaCl, 0.6 MgCl2, 0.1 CaCl2, 1 EGTA, 10 HEPES, 4 Mg-ATP, 0.4 Na-GTP, pH 7.3; adjusted to 295 mOsm with sucrose). The micropipettes were positioned with a Burleigh PCS 5000 micromanipulator. Whole-cell, voltage clamp recordings were acquired using an AxoPatch 200B amplifier (Molecular Devices), filtered at 2 kHz with the internal Bessel filter, and digitized with a National Instruments PCIE-6323 acquisition board at 10 kHz. Ambient 60 Hz noise was removed using a HumBug Noise Eliminator (AutoMate Scientific). For experiments requiring rapid modulation of transmembrane potential, series resistance and whole-cell capacitance were predicted to 95% and corrected to ˜50%. Electrical stimuli were generated using the PCIE-6323 acquisition board and sent to the AXOPATCH™, which then applied these signals in either constant current or constant voltage mode.
# To measure fluorescence as a function of membrane potential, a triangle wave was applied, with amplitude from −150 mV to +150 mV and period 12 s, with video recording at 100 ms per frame. A pixel weight matrix was calculated according to Eq. S2 and applied to the movie images to generate a fluorescence number for each frame. These fluorescence values were divided by their minimum value (at V=−150 mV). The result is plotted as a function of Vin FIGS. 7 and 8. […]
# HEK cells = assay: Photocurrents under 640 nm illumination in voltage-clamped cells; type: cell-based, human
# Protocol: Measurements of photocurrents were performed on HEK cells held in voltage clamp at 0 mV while being exposed to brief (200 ms) pulses of illumination at 640 nm at an intensity of 1800 W/cm^2.
# neurons = assay: Light-induced photocurrent and perturbation of membrane potential in neurons; type: cell-based, rat; settings: I=1800 W/cm2, TIR mode
# Text: Under illumination conditions typically used for imaging neural activity (I=1800 W/cm2 in total internal reflection (TIR) mode), the light-induced outward photocurrent was typically 10 pA in neurons expressing Arch 3 WT. Under current-clamp conditions this photocurrent shifted the resting potential of the neurons by up to −20 mV. For neurons near their activation threshold, this photocurrent could suppress firing (FIG. 9A), so we explored the non-pumping variant D95N as a voltage indicator in neurons.
# Whole-cell current clamp recordings were obtained from mature neurons under the same conditions used for HEK cells recordings. Series resistance and pipette capacitance were corrected. Only neurons having resting potentials between −50 and −70 mV were used in the analysis.
molecule,measurement,setting,value
"Arch 3 WT: Archaerhodopsin 3, light-driven proton pump from Halorubrum sodomense, used as fluorescent voltage indicator (protein, Halorubrum sodomense, Archaerhodopsin 3, light-driven proton pump from Halorubrum sodomense, used as fluorescent voltage indicator) MDPIALQAGYDLLGDGRPETLWLGIGTLLMLIGTFYFLVRGWGVTDKDAREYYAVTILVPGIASAAYLSMFFGIGLTEVTVGGEMLDIYYARYADWLFTTPLLLLDLALLAKVDRVTIGTLVGVDALMIVTGLIGALSHTAIARYSWWLFSTICMIVVLYFLATSLRSAAKERGPEVASTFNTLTALVLVLWTAYPILWIIGTEGAGVVGLGIETLLFMVLDVTAKVGFGFILLRSRAILGDTEAPEPSAGADVSAAD",voltage steps resolved/reported,HEK-293 cells; HEK cells,10 mV
same,photobleaching,"HEK-293 cells; continuous 10-minute exposure, 640 nm, 540 W/cm2",17%
same,fluorescence oscillation amplitude retained relative to low-frequency amplitude,"HEK-293 cells; sinusoidal membrane potential, f=1 kHz",55%
same,response time to a step in membrane potential,HEK-293 cells; steps between −70 mV and +30 mV,< 0.5 ms
same,"response of fluorescence to a step in membrane potential, time","HEK-293 cells; time resolution of imaging system, rising and falling edge",≤ 500 μs
same,increase of fluorescence (fold/factor) between −150 mV and +150 mV,HEK-293 cells; whole-cell voltage clamp,2
same,photocurrents induced by imaging laser,"HEK cells; 640 nm, HEK cells",10-20 pA
same,photocurrent / photoinduced proton pumping,HEK cells; illumination at 640 nm,retains the photoinduced proton-pumping
same,light-induced outward photocurrent,neurons,~10 pA
